The record followed here is PMC6171537 (Biochemistry and Biophysics Reports, 2018).

As usually defined, the stoichiometry N is the number of molecules, sites or subunits per partner or assembly.

The data set deals with the molecule itself. The experiment in a line: SEC-MALS.

B1: LOV-HK (blue light-activated histidine kinase from Brucella abortus), construct 15-489 (enzyme)
chain: MALSQATDPFRAAVEFTLMPMLITNPHLPDNPIVFANPAFLKLTGYEADEVMGRNCRFLQGHGTDPAHVRAIKSAIAAEKPIDIDIINYKKSGEAFWNRLHISPVHNANGRLQHFVSSQLDVTLELSRLVELEKERKTLSIETARSKDQLDYIVEVANIGFWTREFYSGKMTCSAECRRIYGFTPDEPVHFDTILDLVVLEDRMTVVQKAHQAVTGEPYSIEYRIVTRLGETRWLETRAKALTGENPLVLGIVQDVTERKKAEANKALVSREIAHRFKNSMAMVQSIANQTLRNTYDPEQANRLFSERLRALSQAHDMLLKENWAGATIQQICATALAPFNSTFANRIHMSGPHLLVSDRVTVALSLAFYELATNAVKYGALSNEKGVINITWAIMEDKGEKKFHMRWAESRGPEVMQPARRGFGQRLLHSVLAEELKAKCDVEFAASGLLIDVLAPITPEVFPGMGHNVPEQRIA
notes: also called pET-24a-LOVHK-15-489
As for B1, the “stoichiometry N” value came out at 2.
